This is an account of results in paper PMC7175280.

The target of the assay is Mus musculus inward rectifier K+ (Kir) channel 3.1 - Paraburkholderia xenovorans KirBac1.3 chimera (Mus musculus | Paraburkholderia xenovorans (Burkholderia xenovorans LB400)) (UniProt P63250). Put plainly: SEC; HiLoad 16/600 Superdex 200 in 20 mM HEPES pH 7.5, 150 mM KCl, 5 mM DDM, 2 mM DTT, 1 mM EDTA, 0.02% NaN3; protein loaded at ~3 mg/mL; tetramer fractions collected. For orientation: In gel filtration, larger molecules generally elute earlier.

In turn, “Mus musculus inward rectifier K+ (Kir) channel 3.1 - Paraburkholderia xenovorans KirBac1.3 chimera (from UniProt P63250 181-371; P63250 181-371)” returned a stoichiometry N of 4.

For orientation: stoichiometry N means the number of molecules, sites or subunits per partner or assembly.
